Km data for one substance are collected here from patent publication US20220389465A1, “METHODS OF REDUCING BIURET IN UREA COMPOSITIONS” (Regents of the University of Minnesota, priority 2019, published 2022).

The test system of the data set is T1, NC(=O)NC(N)=O.
T1 construct: six-histidine tag (C); made in house; host or cells: Escherichia coli BL21(DE3)
As to the kind of experiment: Inhibition of biuret hydrolase by urea, kinetic constants. Format: biochemical.

Sequence of biuret hydrolase (Rhizobium johnstonii 3841) (chain, as listed by the source): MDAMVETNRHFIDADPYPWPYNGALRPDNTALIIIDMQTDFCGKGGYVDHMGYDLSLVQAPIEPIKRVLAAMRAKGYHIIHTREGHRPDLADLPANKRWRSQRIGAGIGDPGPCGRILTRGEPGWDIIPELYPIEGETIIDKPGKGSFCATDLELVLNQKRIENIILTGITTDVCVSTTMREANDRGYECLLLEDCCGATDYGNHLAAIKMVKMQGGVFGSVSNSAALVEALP

With “biuret hydrolase (Rhizobium johnstonii 3841)”, the Km amounted to 23 µM.

As usually defined, the Km is the substrate concentration at which the rate is half of its maximum.
